In patent publication US10227388B2, “Peptides and combination of peptides for use in immunotherapy against non-small cell lung cancer and other cancers” (immatics biotechnologies GmbH, priority 2015, dated 2019):

Each substance was assayed against HLA-A*02:01 (Homo sapiens, UniProt P04439, D140Y/D185E/D98H/E176V/E277Q/G131W/G231S/I119V/I121R/I166T/I218V/L300P/L318F/N151K/N90K/P208A/P217A/Q86G/Q94H/R138H/R169H/T345S) (assay: MHC binding assay (UV-ligand exchange, ELISA, peptide exchange yield)). Conditions: binding of HLA-class I restricted peptides to HLA-A*02:01.
How it was run: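 Exchange yield was quantified as stabilized β2m-containing complex: monomers diluted 100-fold bound to streptavidin-coated wells, probed with HRP-conjugated anti-β2m, read at 450 nm after TMB. Complexes had been generated by UV cleavage of a photolabile ligand and replacement with the candidate peptide.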

Substance | Peptide exchange (MHC class I binding score, peptide exchange yield)
566 (VIADGGIQNV; listed as Homo sapiens) [compound 566] | ″++″ (≥20% = ++)
567 (SLLPLDDIVRV; listed as Homo sapiens) [compound 567] | ″+++″ (≥50% = +++)
568 (TLYDIAHTPGV; listed as Homo sapiens) [compound 568] | ″++++″ (≥75% = ++++)
569 (KLVDRTWTL; listed as Homo sapiens) [compound 569] | ″+++″ (≥50% = +++)
570 (ALANQIPTV; listed as Homo sapiens) [compound 570] | ″++″ (≥20% = ++)
571 (LLLTTIPQI; listed as Homo sapiens) [compound 571] | ″+++″ (≥50% = +++)
572 (ALADLIEKELSV; listed as Homo sapiens) [compound 572] | ″+++″ (≥50% = +++)
573 (ILVANAIVGV; listed as Homo sapiens) [compound 573] | ″+++″ (≥50% = +++)
574 (YLLQEPPRTV; listed as Homo sapiens) [compound 574] | ″++″ (≥20% = ++)
575 (YLISQVEGHQV; listed as Homo sapiens) [compound 575] | ″+++″ (≥50% = +++)
576 (ILLNNSGQIKL; listed as Homo sapiens) [compound 576] | ″++++″ (≥75% = ++++)
577 (VMFEDGVLMRL; listed as Homo sapiens) [compound 577] | ″+++″ (≥50% = +++)
578 (FLDPGGPMMKL; listed as Homo sapiens) [compound 578] | ″+++″ (≥50% = +++)
579 (NLMEMVAQL; listed as Homo sapiens) [compound 579] | ″++″ (≥20% = ++)
580 (LLMENAERV; listed as Homo sapiens) [compound 580] | ″++″ (≥20% = ++)
582 (TLCDVILMV; listed as Homo sapiens) [compound 582] | ″+++″ (≥50% = +++)
583 (ILANDGVLLAA; listed as Homo sapiens) [compound 583] | ″+++″ (≥50% = +++)
584 (ALAEVAAMENV; listed as Homo sapiens) [compound 584] | ″+++″ (≥50% = +++)
585 (ALWDLAADKQTL; listed as Homo sapiens) [compound 585] | ″++++″ (≥75% = ++++)
586 (KLKPGDLVGV; listed as Homo sapiens) [compound 586] | ″+++″ (≥50% = +++)
587 (VMNDRLYAI; listed as Homo sapiens) [compound 587] | ″+++″ (≥50% = +++)
588 (SLLPLSHLV; listed as Homo sapiens) [compound 588] | ″+++″ (≥50% = +++)
589 (KLYPQLPAEI; listed as Homo sapiens) [compound 589] | ″+++″ (≥50% = +++)

Substance | Peptide exchange (MHC class I binding score, peptide exchange yield)
590 (SLIEKLWQT; listed as Homo sapiens) [compound 590] | ″++″ (≥20% = ++)
591 (SMAELDIKL; listed as Homo sapiens) [compound 591] | ″+++″ (≥50% = +++)
592 (RLLSAAENFL; listed as Homo sapiens) [compound 592] | ″+++″ (≥50% = +++)
593 (GLPRFGIEMV; listed as Homo sapiens) [compound 593] | ″+++″ (≥50% = +++)
594 (IMLKGDNITL; listed as Homo sapiens) [compound 594] | ″+++″ (≥50% = +++)
595 (VLLSIYPRV; listed as Homo sapiens) [compound 595] | ″+++″ (≥50% = +++)
596 (ALLDQTKTLAESAL; listed as Homo sapiens) [compound 596] | ″+++″ (≥50% = +++)
597 (KLLEGQVIQL; listed as Homo sapiens) [compound 597] | ″+++″ (≥50% = +++)
598 (FLFPHSVLV; listed as Homo sapiens) [compound 598] | ″+++″ (≥50% = +++)
599 (YLLNDASLISV; listed as Homo sapiens) [compound 599] | ″+++″ (≥50% = +++)
600 (ALAAPDIVPAL; listed as Homo sapiens) [compound 600] | ″+++″ (≥50% = +++)
601 (SAFPFPVTV; listed as Homo sapiens) [compound 601] | ″+++″ (≥50% = +++)
602 (YLLEQIKLIEV; listed as Homo sapiens) [compound 602] | ″++++″ (≥75% = ++++)
604 (SILDRDDIFV; listed as Homo sapiens) [compound 604] | ″+++″ (≥50% = +++)
605 (KLYEAVPQL; listed as Homo sapiens) [compound 605] | ″+++″ (≥50% = +++)
606 (ALWETEVYI; listed as Homo sapiens) [compound 606] | ″+++″ (≥50% = +++)
607 (RLYSGISGLEL; listed as Homo sapiens) [compound 607] | ″+++″ (≥50% = +++)
608 (SLLSVSHAL; listed as Homo sapiens) [compound 608] | ″+++″ (≥50% = +++)
609 (ALWKQLLEL; listed as Homo sapiens) [compound 609] | ″+++″ (≥50% = +++)
610 (LLAPTPYIIGV; listed as Homo sapiens) [compound 610] | ″+++″ (≥50% = +++)
611 (YLLDDGTLVV; listed as Homo sapiens) [compound 611] | ″++++″ (≥75% = ++++)
612 (YLYNEGLSV; listed as Homo sapiens) [compound 612] | ″+++″ (≥50% = +++)
